Positions count from the first letter of the chain named. Names may count otherwise. One block for each binder: values may come before it.
Molecular target: T1, Human CD137 ECD (human)
T1 construct: also called 4-1BB
Assay: SPR, vs parent H183/L072

T1 sequence (chain, as listed by the source limits assumed): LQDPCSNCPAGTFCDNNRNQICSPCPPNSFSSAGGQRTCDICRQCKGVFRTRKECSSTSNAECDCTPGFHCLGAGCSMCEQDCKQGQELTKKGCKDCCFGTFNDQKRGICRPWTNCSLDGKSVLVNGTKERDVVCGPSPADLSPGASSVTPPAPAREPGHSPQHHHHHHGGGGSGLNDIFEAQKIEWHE

B1: dBBDu183H K64N / dBBDu072L (antibody, name in Kabat numbering, V domains shown)
VH: QVQLVESGGGLVQPGRSLRLSCAASGFTFSNAWMHWVRQAPGKGLEWVAQIKDKGNAYAAYYAPSVNGRFTISRDDSKNSIYLQMNSLKTEDTAVYYCHYVHYASASTVLPAFGVDAWGQGTTVTVSS
VL: DIVMTQSPLSLPVTPGEPASISCQASQELVHMNRNTYLHWYQQKPGQAPRLLIYKVSNRFPGVPDRFSGSGSGTDFTLKISRVEAEDVGVYYCAQGTSVPFTFGQGTKLEIK
notes: as m1, one VH change
- fold change of affinity: 1 fold

B2: dBBDu183H P61Y / dBBDu072L (antibody, name in Kabat numbering, V domains shown)
VH: B1 VH with P64Y, N67K
VL: B1 VL
notes: as m1, one VH change
- fold change of affinity: 0.7 fold

B3: dBBDu183H S62N / dBBDu072L (antibody, name in Kabat numbering, V domains shown)
VH: B1 VH with S65N, N67K
VL: B1 VL
notes: as m1, one VH change
- fold change of affinity: 0.9 fold

B4: dBBDu183H S62D / dBBDu072L (antibody, name in Kabat numbering, V domains shown)
VH: B1 VH with S65D, N67K
VL: B1 VL
notes: as m1, one VH change
- fold change of affinity: 0.9 fold

B5: dBBDu183H S62T / dBBDu072L (antibody, name in Kabat numbering, V domains shown)
VH: B1 VH with S65T, N67K
VL: B1 VL
notes: as m1, one VH change
- fold change of affinity: 1 fold

B8: dBBDu183H P100eS / dBBDu072L (antibody, name in Kabat numbering, V domains shown)
VH: B1 VH with N67K, P111S
VL: B1 VL
notes: as m1, one VH change
- fold change of affinity: 0.4 fold

B9: dBBDu183H K64T / dBBDu072L (antibody, name in Kabat numbering, V domains shown)
VH: B1 VH with N67T
VL: B1 VL
notes: as m1, one VH change
- fold change of affinity: 1.1 fold

B10: dBBDu183H L100dQ / dBBDu072L (antibody, name in Kabat numbering, V domains shown)
VH: B1 VH with N67K, L110Q
VL: B1 VL
notes: as m1, one VH change
- fold change of affinity: 0.5 fold

B11: dBBDu183H P61R / dBBDu072L (antibody, name in Kabat numbering, V domains shown)
VH: B1 VH with P64R, N67K
VL: B1 VL
notes: as m1, one VH change
- fold change of affinity: 1 fold

B13: dBBDu183H P61E / dBBDu072L (antibody, name in Kabat numbering, V domains shown)
VH: B1 VH with P64E, N67K
VL: B1 VL
notes: as m1, one VH change
- fold change of affinity: 0.7 fold

B14: dBBDu183H L100dS / dBBDu072L (antibody, name in Kabat numbering, V domains shown)
VH: B1 VH with N67K, L110S
VL: B1 VL
notes: as m1, one VH change
- fold change of affinity: 0.5 fold

B16: dBBDu183H L100dE / dBBDu072L (antibody, name in Kabat numbering, V domains shown)
VH: B1 VH with N67K, L110E
VL: B1 VL
notes: as m1, one VH change
- fold change of affinity: 0.4 fold

B20: dBBDu183H P100eE / dBBDu072L (antibody, name in Kabat numbering, V domains shown)
VH: B1 VH with N67K, P111E
VL: B1 VL
notes: as m1, one VH change
- fold change of affinity: 0.8 fold

B21: dBBDu183H S62K / dBBDu072L (antibody, name in Kabat numbering, V domains shown)
VH: B1 VH with S65K, N67K
VL: B1 VL
notes: as m1, one VH change
- fold change of affinity: 0.9 fold

B22: dBBDu183H P61G / dBBDu072L (antibody, name in Kabat numbering, V domains shown)
VH: B1 VH with P64G, N67K
VL: B1 VL
notes: as m1, one VH change
- fold change of affinity: 1 fold

B23: dBBDu183H L100dW / dBBDu072L (antibody, name in Kabat numbering, V domains shown)
VH: B1 VH with N67K, L110W
VL: B1 VL
notes: as m1, one VH change
- fold change of affinity: 0.2 fold

B27: dBBDu183H P100eK / dBBDu072L (antibody, name in Kabat numbering, V domains shown)
VH: B1 VH with N67K, P111K
VL: B1 VL
notes: as m1, one VH change
- fold change of affinity: 0.3 fold

B28: dBBDu183H P61D / dBBDu072L (antibody, name in Kabat numbering, V domains shown)
VH: B1 VH with P64D, N67K
VL: B1 VL
notes: as m1, one VH change
- fold change of affinity: 0.7 fold

B29: dBBDu183H K64V / dBBDu072L (antibody, name in Kabat numbering, V domains shown)
VH: B1 VH with N67V
VL: B1 VL
notes: as m1, one VH change
- fold change of affinity: 1 fold

B31: dBBDu183H P100eH / dBBDu072L (antibody, name in Kabat numbering, V domains shown)
VH: B1 VH with N67K, P111H
VL: B1 VL
notes: as m1, one VH change
- fold change of affinity: 0.1 fold

B32: dBBDu183H P61S / dBBDu072L (antibody, name in Kabat numbering, V domains shown)
VH: B1 VH with P64S, N67K
VL: B1 VL
notes: as m1, one VH change
- fold change of affinity: 1.1 fold

B34: dBBDu183H P61K / dBBDu072L (antibody, name in Kabat numbering, V domains shown)
VH: B1 VH with P64K, N67K
VL: B1 VL
notes: as m1, one VH change
- fold change of affinity: 0.8 fold

B35: dBBDu183H K64Y / dBBDu072L (antibody, name in Kabat numbering, V domains shown)
VH: B1 VH with N67Y
VL: B1 VL
notes: as m1, one VH change
- fold change of affinity: 1.1 fold

B37: dBBDu183H K64S / dBBDu072L (antibody, name in Kabat numbering, V domains shown)
VH: B1 VH with N67S
VL: B1 VL
notes: as m1, one VH change
- fold change of affinity: 1.2 fold

B39: dBBDu183H K64R / dBBDu072L (antibody, name in Kabat numbering, V domains shown)
VH: B1 VH with N67R
VL: B1 VL
notes: as m1, one VH change
- fold change of affinity: 1.1 fold

B40: dBBDu183H S62H / dBBDu072L (antibody, name in Kabat numbering, V domains shown)
VH: B1 VH with S65H, N67K
VL: B1 VL
notes: as m1, one VH change
- fold change of affinity: 0.9 fold

B41: dBBDu183H P61H / dBBDu072L (antibody, name in Kabat numbering, V domains shown)
VH: B1 VH with P64H, N67K
VL: B1 VL
notes: as m1, one VH change
- fold change of affinity: 0.9 fold

B42: dBBDu183H L100dK / dBBDu072L (antibody, name in Kabat numbering, V domains shown)
VH: B1 VH with N67K, L110K
VL: B1 VL
notes: as m1, one VH change
- fold change of affinity: 0.7 fold

B44: dBBDu183H P61Q / dBBDu072L (antibody, name in Kabat numbering, V domains shown)
VH: B1 VH with P64Q, N67K
VL: B1 VL
notes: as m1, one VH change
- fold change of affinity: 0.6 fold

B45: dBBDu183H S62F / dBBDu072L (antibody, name in Kabat numbering, V domains shown)
VH: B1 VH with S65F, N67K
VL: B1 VL
notes: as m1, one VH change
- fold change of affinity: 0.5 fold

Continued, values first:

- fold change of affinity: 1.4 fold
B6: dBBDu183H P61T / dBBDu072L (antibody, name in Kabat numbering, V domains shown)
VH: B1 VH with P64T, N67K
VL: B1 VL
notes: as m1, one VH change

- fold change of affinity: 0.3 fold
B7: dBBDu183H P100eR / dBBDu072L (antibody, name in Kabat numbering, V domains shown)
VH: B1 VH with N67K, P111R
VL: B1 VL
notes: as m1, one VH change

- fold change of affinity: 1.1 fold
B12: dBBDu183H K64Q / dBBDu072L (antibody, name in Kabat numbering, V domains shown)
VH: B1 VH with N67Q
VL: B1 VL
notes: as m1, one VH change

- fold change of affinity: 0.2 fold
B15: dBBDu183H P100eT / dBBDu072L (antibody, name in Kabat numbering, V domains shown)
VH: B1 VH with N67K, P111T
VL: B1 VL
notes: as m1, one VH change

- fold change of affinity: 0.2 fold
B17: dBBDu183H P100eN / dBBDu072L (antibody, name in Kabat numbering, V domains shown)
VH: B1 VH with N67K, P111N
VL: B1 VL
notes: as m1, one VH change

- fold change of affinity: 1 fold
B18: dBBDu183H S62G / dBBDu072L (antibody, name in Kabat numbering, V domains shown)
VH: B1 VH with S65G, N67K
VL: B1 VL
notes: as m1, one VH change

- fold change of affinity: 1 fold
B19: dBBDu183H S62Q / dBBDu072L (antibody, name in Kabat numbering, V domains shown)
VH: B1 VH with S65Q, N67K
VL: B1 VL
notes: as m1, one VH change

- fold change of affinity: 0.5 fold
B24: dBBDu183H L100dV / dBBDu072L (antibody, name in Kabat numbering, V domains shown)
VH: B1 VH with N67K, L110V
VL: B1 VL
notes: as m1, one VH change

- fold change of affinity: 0.8 fold
B25: dBBDu183H P61W / dBBDu072L (antibody, name in Kabat numbering, V domains shown)
VH: B1 VH with P64W, N67K
VL: B1 VL
notes: as m1, one VH change

- fold change of affinity: 0.3 fold
B26: dBBDu183H P100eD / dBBDu072L (antibody, name in Kabat numbering, V domains shown)
VH: B1 VH with N67K, P111D
VL: B1 VL
notes: as m1, one VH change

- fold change of affinity: 1.1 fold
B30: dBBDu183H S62R / dBBDu072L (antibody, name in Kabat numbering, V domains shown)
VH: B1 VH with S65R, N67K
VL: B1 VL
notes: as m1, one VH change

- fold change of affinity: 0.7 fold
B33: dBBDu183H P61F / dBBDu072L (antibody, name in Kabat numbering, V domains shown)
VH: B1 VH with P64F, N67K
VL: B1 VL
notes: as m1, one VH change

- fold change of affinity: 0.4 fold
B36: dBBDu183H P100eG / dBBDu072L (antibody, name in Kabat numbering, V domains shown)
VH: B1 VH with N67K, P111G
VL: B1 VL
notes: as m1, one VH change

- fold change of affinity: 1.2 fold
B38: dBBDu183H P61N / dBBDu072L (antibody, name in Kabat numbering, V domains shown)
VH: B1 VH with P64N, N67K
VL: B1 VL
notes: as m1, one VH change

- fold change of affinity: 0.8 fold
B43: dBBDu183H S62E / dBBDu072L (antibody, name in Kabat numbering, V domains shown)
VH: B1 VH with S65E, N67K
VL: B1 VL
notes: as m1, one VH change

- fold change of affinity: 1.2 fold
B46: dBBDu183H K64W / dBBDu072L (antibody, name in Kabat numbering, V domains shown)
VH: B1 VH with N67W
VL: B1 VL
notes: as m1, one VH change

- fold change of affinity: 0.4 fold
B47: dBBDu183H P100eQ / dBBDu072L (antibody, name in Kabat numbering, V domains shown)
VH: B1 VH with N67K, P111Q
VL: B1 VL
notes: as m1, one VH change

Reference: patent publication US20210388087A1 (Chugai, published 2021)
